# Measurements: paper PMC2573054 (The Journal of Biological Chemistry, 2008)
# B1: PLCγ2 spPH (aa 471-913, Δ516-841), wild type (domain or fragment)
# chain: GGSGGSKKDEHKQQGELYMWDSIDQKWTRHYCAIADAKLSFSDDIEQTMEEDNPLGSLCRGILDLNTYNVVKAPQGKNQKSFVFILEPKQQGDPPVEFATDRVEELFEWFQSIREITWKIDTK
# B2: PLCγ1-122 (PLCγ1 with both portions of the split PH domain of PLCγ2), c-myc epitope-tagged (enzyme)
# chain: MAGAASPCANGCGPGAPSDAEVLHLCRSLEVGTVMTLFYSKKSQRPERKTFQVKLETRQITWSRGADKIEGAIDIREIKEIRPGKTSRDFDRYQEDPAFRPDQSHCFVILYGMEFRLKTLSLQATSEDEVNMWIKGLTWLMEDTLQAPTPLQIERWLRKQFYSVDRNREDRISAKDLKNMLSQVNYRVPNMRFLRERLTDLEQRSGDITYGQFAQLYRSLMYSAQKTMDLPFLEASTLRAGERPELCRVSLPEFQQFLLDYQGELWAVDRLQVQEFMLSFLRDPLREIEEPYFFLDEFVTFLFSKENSVWNSQLDAVCPDTMNNPLSHYWISSSHNTYLTGDQFSSESSLEAYARCLRMGCRCIELDCWDGPDGMPVIYHGHTLTTKIKFSDVLHTIKEHAFVASEYPVILSIEDHCSIAQQRNMAQYFKKVLGDTLLTKPVEISADGLPSPNQLKRKILIKHKKLAEGSAYEEVPTSMMYMEDKKDEHKQQGELYMWDSIDQKWTRHYCAIADAKLSFSDDIEQTMGNEDEEEPKEVSSSTELHSNEKWFHGKLGAGRDGRHIAERLLTEYCIETGAPDGSFLVRESETFVGDYTLSFWRNGKVQHCRIHSRQDAGTPKFFLTDNLVFDSLYDLITHYQQVPLRCNEFEMRLSEPVPQTNAHESKEWYHASLTRAQAEHMLMRVPRDGAFLVRKRNEPNSYAISFRAEGKIKHCRVQQEGQTVMLGNSEFDSLVDLISYYEKHPLYRKMKLRYPINEEALEKIGTAEPDYGALYEGRNPGFYVEANPMPTFKCAVKALFDYKAQREDELTFIKSAIIQNVEKQEGGWWRGDYGGKKQLWFPSNYVEEMVNPVALEPEREHLDENSPLGDLCRGILDLNTYNVVKAPQGKNQKSFVFILEPKQQGDPPVEFATDRVEELFEWFQSIREITWKIDTKETEGKIMERRKKIALELSELVVYCRPVPFDEEKIGTERACYRDMSSFPETKAEKYVNKAKGKKFLQYNRLQLSRIYPKGQRLDSSNYDPLPMWICGSQLVALNFQTPDKPMQMNQALFMTGRHCGYVLQPSTMRDEAFDPFDKSSLRGLEPCAISIEVLGARHLPKNGRGIVCPFVEIEVAGAEYDSTKQKTEFVVDNGLNPVWPAKPFHFQISNPEFAFLRFVVYEEDMFSDQNFLAQATFPVKGLKTGYRAVPLKNNYSEDLELASLLIKIDIFPAKQENGDLSPFSGTSLRERGSDASGQLFHGRAREGSFESRYQQPFEDFRISQEHLADHFDSRERRAPRRTRVNGDNRL
# B3: c-myc epitope-tagged human PLCγ2 (PLCγ2-222, wild type) (enzyme)
# chain: MSTTVNVDSLAEYEKSQIKRALELGTVMTVFSFRKSTPERRTVQVIMETRQVAWSKTADKIEGFLDIMEIKEIRPGKNSKDFERAKAVRQKEDCCFTILYGTQFVLSTLSLAADSKEDAVNWLSGLKILHQEAMNASTPTIIESWLRKQIYSVDQTRRNSISLRELKTILPLINFKVSSAKFLKDKFVEIGAHKDELSFEQFHLFYKKLMFEQQKSILDEFKKDSSVFILGNTDRPDASAVYLHDFQRFLIHEQQEHWAQDLNKVRERMTKFIDDTMRETAEPFLFVDEFLTYLFSRENSIWDEKYDAVDMQDMNNPLSHYWISSSHNTYLTGDQLRSESSPEAYIRCLRMGCRCIELDCWDGPDGKPVIYHGWTRTTKIKFDDVVQAIKDHAFVTSSFPVILSIEEHCSVEQQRHMAKAFKEVFGDLLLTKPTEASADQLPSPSQLREKIIIKHKKLGPRGDVDVNMEDKKDEHKQQGELYMWDSIDQKWTRHYCAIADAKLSFSDDIEQTMEEEVPQDIPPTELHFGEKWFHKKVEKRTSAEKLLQEYCMETGGKDGTFLVRESETFPNDYTLSFWRSGRVQHCRIRSTMEGGTLKYYLTDNLTFSSIYALIQHYRETHLRCAEFELRLTDPVPNPNPHESKPWYYDSLSRGEAEDMLMRIPRDGAFLIRKREGSDSYAITFRARGKVKHCRINRDGRHFVLGTSAYFESLVELVSYYEKHSLYRKMRLRYPVTPELLERYNMERDINSLYDVSRMYVDPSEINPSMPQRTVKALYDYKAKRSDELSFCRGALIHNVSKEPGGWWKGDYGTRIQQYFPSNYVEDISTADFEELEKQIIEDNPLGSLCRGILDLNTYNVVKAPQGKNQKSFVFILEPKQQGDPPVEFATDRVEELFEWFQSIREITWKIDTKENNMKYWEKNQSIAIELSDLVVYCKPTSKTKDNLENPDFREIRSFVETKADSIIRQKPVDLLKYNQKGLTRVYPKGQRVDSSNYDPFRLWLCGSQMVALNFQTADKYMQMNHALFSLNGRTGYVLQPESMRTEKYDPMPPESQRKILMTLTVKVLGARHLPKLGRSIACPFVEVEICGAEYDNNKFKTTVVNDNGLSPIWAPTQEKVTFEIYDPNLAFLRFVVYEEDMFSDPNFLAHATYPIKAVKSGFRSVPLKNGYSEDIELASLLVFCEMRPVLESEEELYSSCRQLRRRQEELNNQLFLYDTHQNLRNANRDALVKEFSVNENQLQLYQEKCNKRLREKRVSNSKFYS
# Biological target: His-Rac2 (hexahistidine-tagged Rac2^G12V, aa 2-177) (human, UniProt P15153 2-177, G12V)
# Experiment: SPR
Kd,koff,kon,Binder
17 µM,0.0016 s⁻¹,93.8 M⁻¹ s⁻¹,B1
5.8 µM,0.0025 s⁻¹,434 M⁻¹ s⁻¹,B2
3.9 µM,0.0031 s⁻¹,806 M⁻¹ s⁻¹,B3
